Source: patent US20220017863A1 (H LEE MOFFITT CANCER CENTER AND RESEARCH INSTITUTE, published 2022)

Tests used:
aconitase 2 (ACO2) = biological target: T1, aconitase 2 (ACO2) (mouse, UniProt Q99KI0 28-780); assay: co-IP/immunoblot and reverse co-IP/immunoblot, activated WT mouse CD3+ T cell extracts
T1 sequence (looked up): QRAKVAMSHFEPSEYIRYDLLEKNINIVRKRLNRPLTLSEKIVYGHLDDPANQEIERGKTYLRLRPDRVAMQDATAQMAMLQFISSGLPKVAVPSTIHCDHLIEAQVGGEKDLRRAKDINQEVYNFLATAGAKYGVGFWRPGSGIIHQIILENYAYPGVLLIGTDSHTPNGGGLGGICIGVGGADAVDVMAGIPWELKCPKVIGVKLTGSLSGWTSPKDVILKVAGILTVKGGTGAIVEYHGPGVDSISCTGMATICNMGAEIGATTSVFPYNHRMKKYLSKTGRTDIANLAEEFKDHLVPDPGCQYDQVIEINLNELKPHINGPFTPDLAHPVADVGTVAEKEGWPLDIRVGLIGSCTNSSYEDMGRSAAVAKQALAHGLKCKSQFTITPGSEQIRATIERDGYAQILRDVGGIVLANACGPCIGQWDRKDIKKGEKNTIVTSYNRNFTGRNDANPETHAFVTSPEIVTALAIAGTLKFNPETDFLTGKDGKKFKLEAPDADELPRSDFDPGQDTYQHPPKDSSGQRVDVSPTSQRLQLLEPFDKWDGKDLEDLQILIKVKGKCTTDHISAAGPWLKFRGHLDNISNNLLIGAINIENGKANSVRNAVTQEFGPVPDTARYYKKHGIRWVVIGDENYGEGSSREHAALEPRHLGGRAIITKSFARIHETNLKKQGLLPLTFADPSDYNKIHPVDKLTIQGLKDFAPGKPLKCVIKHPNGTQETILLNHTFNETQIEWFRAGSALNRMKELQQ

[1] = biological target: T2, phosphoglycerate kinase 1 (PGK1) (mouse, UniProt P09411 2-417); assay: as above
T2 sequence (looked up): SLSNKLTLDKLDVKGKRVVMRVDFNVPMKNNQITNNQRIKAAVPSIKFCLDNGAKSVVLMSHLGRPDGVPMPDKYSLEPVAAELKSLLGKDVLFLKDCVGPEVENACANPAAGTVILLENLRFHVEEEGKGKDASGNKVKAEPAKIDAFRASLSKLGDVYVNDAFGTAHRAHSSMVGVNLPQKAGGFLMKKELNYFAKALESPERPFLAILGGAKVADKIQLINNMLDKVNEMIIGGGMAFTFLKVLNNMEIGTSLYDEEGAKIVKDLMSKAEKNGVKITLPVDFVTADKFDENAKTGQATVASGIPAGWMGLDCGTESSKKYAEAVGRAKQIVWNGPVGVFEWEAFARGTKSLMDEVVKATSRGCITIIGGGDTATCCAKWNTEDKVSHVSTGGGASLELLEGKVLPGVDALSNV

[2] = biological target: T3, phosphofructokinase P (PFKP) (mouse, UniProt Q9WUA3 1-784); assay: as above
T3 sequence (looked up): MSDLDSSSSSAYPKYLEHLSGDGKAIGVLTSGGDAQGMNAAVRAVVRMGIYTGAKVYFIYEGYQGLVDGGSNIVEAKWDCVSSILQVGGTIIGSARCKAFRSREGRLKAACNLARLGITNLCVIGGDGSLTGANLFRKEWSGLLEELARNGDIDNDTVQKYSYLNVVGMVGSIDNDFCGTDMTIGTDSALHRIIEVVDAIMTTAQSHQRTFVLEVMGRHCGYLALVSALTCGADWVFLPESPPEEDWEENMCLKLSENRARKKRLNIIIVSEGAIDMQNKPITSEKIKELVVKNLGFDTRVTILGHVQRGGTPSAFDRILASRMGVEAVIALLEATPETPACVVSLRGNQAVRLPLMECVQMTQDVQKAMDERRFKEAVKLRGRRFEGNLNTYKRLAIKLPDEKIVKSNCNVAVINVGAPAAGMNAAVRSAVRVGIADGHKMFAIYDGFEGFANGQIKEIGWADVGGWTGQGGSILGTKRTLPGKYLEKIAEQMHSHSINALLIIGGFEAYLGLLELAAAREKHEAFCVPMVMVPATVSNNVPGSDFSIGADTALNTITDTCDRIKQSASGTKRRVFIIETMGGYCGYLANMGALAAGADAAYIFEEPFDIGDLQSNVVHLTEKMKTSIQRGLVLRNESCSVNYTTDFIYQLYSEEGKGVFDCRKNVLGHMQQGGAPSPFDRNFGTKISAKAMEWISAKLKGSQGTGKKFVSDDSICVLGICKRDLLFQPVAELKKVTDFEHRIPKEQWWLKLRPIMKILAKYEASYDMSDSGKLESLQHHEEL

[3] = biological target: T4, alanine, serine, cysteine-preferring transporter 2 (ASCT2) (mouse, UniProt P51912 1-553); assay: IP of Sirt2, LC-MS/MS, activated WT mouse CD3+ T cell extracts
T4 construct: Endogenous protein in lysate; also called Glutamine transporter ASCT2; ACST2
T4 sequence (looked up): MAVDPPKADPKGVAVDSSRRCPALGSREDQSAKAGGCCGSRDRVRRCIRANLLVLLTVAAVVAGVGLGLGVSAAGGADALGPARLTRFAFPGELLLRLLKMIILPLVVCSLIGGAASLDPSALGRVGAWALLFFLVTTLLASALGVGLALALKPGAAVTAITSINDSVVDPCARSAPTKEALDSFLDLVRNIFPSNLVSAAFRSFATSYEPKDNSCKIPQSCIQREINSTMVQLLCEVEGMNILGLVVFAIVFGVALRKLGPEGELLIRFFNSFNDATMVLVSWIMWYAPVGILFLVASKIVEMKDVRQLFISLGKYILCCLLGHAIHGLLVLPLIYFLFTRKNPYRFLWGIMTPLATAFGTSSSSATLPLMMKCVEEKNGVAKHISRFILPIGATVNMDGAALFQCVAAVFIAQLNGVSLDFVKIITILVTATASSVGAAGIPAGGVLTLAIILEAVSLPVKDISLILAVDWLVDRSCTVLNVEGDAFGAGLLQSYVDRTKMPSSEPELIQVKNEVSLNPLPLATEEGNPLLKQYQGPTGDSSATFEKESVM

[4] = biological target: succinate dehydrogenase subunit alpha (SDHA) (mouse, UniProt Q8K2B3 43-664); assay: as above
Chain of succinate dehydrogenase subunit alpha (SDHA) (Q8K2B3 43-664 limits assumed): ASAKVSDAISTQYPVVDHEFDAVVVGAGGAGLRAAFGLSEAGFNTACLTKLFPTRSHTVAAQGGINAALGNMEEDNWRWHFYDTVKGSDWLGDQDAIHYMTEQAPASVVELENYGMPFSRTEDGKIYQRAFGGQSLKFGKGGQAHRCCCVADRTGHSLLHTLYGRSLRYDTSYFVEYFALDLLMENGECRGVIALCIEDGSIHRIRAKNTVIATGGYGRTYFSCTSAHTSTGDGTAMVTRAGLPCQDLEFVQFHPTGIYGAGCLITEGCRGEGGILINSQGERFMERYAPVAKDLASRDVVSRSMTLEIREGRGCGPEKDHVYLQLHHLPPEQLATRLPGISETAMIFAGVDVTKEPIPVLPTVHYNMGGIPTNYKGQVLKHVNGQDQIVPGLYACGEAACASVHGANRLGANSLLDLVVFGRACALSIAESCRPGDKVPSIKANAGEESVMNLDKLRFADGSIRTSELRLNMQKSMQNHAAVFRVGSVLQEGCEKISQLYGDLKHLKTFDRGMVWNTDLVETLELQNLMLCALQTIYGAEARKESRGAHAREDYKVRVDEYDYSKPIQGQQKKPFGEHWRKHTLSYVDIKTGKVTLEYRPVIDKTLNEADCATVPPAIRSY

pyruvate kinase M (PKM) = biological target: T5, pyruvate kinase M (PKM) (mouse, UniProt P52480 1-531, limits assumed); assay: reverse co-IP with antibody to the enzyme, anti-Sirt2 immunoblot, activated WT mouse CD3+ T cell extracts (FIG. 3C)
T5 construct: also called PKM1/2; pyruvate kinase isozymes M1/M2
T5 sequence (P52480 whole entry): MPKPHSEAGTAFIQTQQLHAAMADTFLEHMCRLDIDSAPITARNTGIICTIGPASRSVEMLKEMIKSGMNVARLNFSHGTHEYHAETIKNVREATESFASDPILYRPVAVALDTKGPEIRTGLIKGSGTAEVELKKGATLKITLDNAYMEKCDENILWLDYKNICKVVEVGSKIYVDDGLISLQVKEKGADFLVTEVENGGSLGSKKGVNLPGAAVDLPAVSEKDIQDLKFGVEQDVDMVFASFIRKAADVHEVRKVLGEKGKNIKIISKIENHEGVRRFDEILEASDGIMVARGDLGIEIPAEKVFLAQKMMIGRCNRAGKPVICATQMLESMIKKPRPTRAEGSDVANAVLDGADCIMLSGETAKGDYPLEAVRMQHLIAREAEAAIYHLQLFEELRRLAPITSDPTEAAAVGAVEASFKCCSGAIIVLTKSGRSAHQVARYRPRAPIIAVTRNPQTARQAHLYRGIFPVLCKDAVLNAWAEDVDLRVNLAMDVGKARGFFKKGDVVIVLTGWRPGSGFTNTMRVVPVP

Measured: binding result

B1: Sirt2 (enzyme, mouse, UniProt Q8VDQ8 2-389, looked up)
chain: AEPDPSDPLETQAGKVQEAQDSDSDTEGGATGGEAEMDFLRNLFTQTLGLGSQKERLLDELTLEGVTRYMQSERCRKVICLVGAGISTSAGIPDFRSPSTGLYANLEKYHLPYPEAIFEISYFKKHPEPFFALAKELYPGQFKPTICHYFIRLLKEKGLLLRCYTQNIDTLERVAGLEPQDLVEAHGTFYTSHCVNTSCRKEYTMGWMKEKIFSEATPRCEQCQSVVKPDIVFFGENLPSRFFSCMQSDFSKVDLLIIMGTSLQVQPFASLISKAPLATPRLLINKEKTGQTDPFLGMMMGLGGGMDFDSKKAYRDVAWLGDCDQGCLALADLLGWKKELEDLVRREHANIDAQSGSQAPNPSTTISPGKSPPPAKEAARTKEKEEQQ
notes: Endogenous protein immunoprecipitated from T cell lysates with anti-Sirt2 (Sigma #9441); also called Sirtuin 2
binds: aconitase 2 (ACO2) | [1] | [2] | [3] | [4] | pyruvate kinase M (PKM)
